In patent US20180155451A1 (published 2018):

T1: FcγRIIb (human, UniProt P31994 43-217)
T1 construct: extracellular domain; also called FcgRIIb; 2b
T1 sequence (looked up): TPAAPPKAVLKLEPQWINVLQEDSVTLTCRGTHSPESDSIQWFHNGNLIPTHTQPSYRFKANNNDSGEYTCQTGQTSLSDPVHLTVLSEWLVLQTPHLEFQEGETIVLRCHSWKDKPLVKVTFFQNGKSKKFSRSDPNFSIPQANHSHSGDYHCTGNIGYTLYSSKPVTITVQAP

T2: FcγRIIb extracellular domain with C-terminal His tag (human, UniProt P31994 43-217)
T2 construct: extracellular domain; also called 2b; FcgRIIb
T2 sequence (looked up): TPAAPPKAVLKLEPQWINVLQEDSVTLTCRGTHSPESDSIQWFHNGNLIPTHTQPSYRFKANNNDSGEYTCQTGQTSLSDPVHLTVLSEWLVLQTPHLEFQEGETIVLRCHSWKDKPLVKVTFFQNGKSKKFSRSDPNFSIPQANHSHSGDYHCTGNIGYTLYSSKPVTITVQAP


Legend:
FcγRIIb = molecular target: T1, FcγRIIb; experiment: SPR (Biacore), relative to GpH7-A5/GpH7-B3/GpL16-k0 = 100
Method: (§1) The heterodimerized antibodies He Abs in which one of the H chains was introduced with an alteration were assayed for their binding activities to each activating FcγR and inhibitory FcγR according to the method described in Example 4. […] The activating FcγRs in FIGS. 26, 27, 28, and 29 are FcγRIa, FcγRIIa (R), FcγRIIa (H), and FcγRIIIa, respectively.
(§2) Analysis of interaction between objective antibody and the FcγR was carried out using Biacore T100 (GE Healthcare). HBS-EP+ (GE Healthcare) was used as the running buffer, and the measurement temperature was set to 25° C. Chips produced by immobilizing the antigen peptide by the amine coupling method to a Series S Sencor Chip CM5 (GE Healthcare), or alternatively, chips produced by allowing preliminarily biotinylated antigen peptides to interact with and immobilize onto a Series S Sensor Chip SA (certified) (GE Healthcare) were used. Antibodies of interest were captured onto an antigen peptide-immobilized chip, and allowed to interact to each FcγR diluted with running buffer. To regenerate and repeatedly use the chip, the antibodies captured on the chip were washed off by reacting 10 mM glycine-HCl, pH 1.5.

FcγRIa = molecular target: T3, FcγRIa (human, UniProt P12314 16-292); experiment: as above
T3 construct: extracellular domain; also called FcgRI; FcgRIa
Method: as §1, §2

[1] = molecular target: T4, FcγRIIIa extracellular domain with C-terminal His tag (human, UniProt P08637 17-208); experiment: SPR, relative to GpH7-A5/GpH7-B3/GpL16-k0
T4 construct: extracellular domain; also called 3a; FcgRIIIa
Method: as §1, §2

[2] = molecular target: T2, FcγRIIb extracellular domain with …; experiment: SPR, relative to GpH7-A5/GpH7-B3/GpL16-k0
Method: as §1, §2

T3 sequence (P12314 16-292): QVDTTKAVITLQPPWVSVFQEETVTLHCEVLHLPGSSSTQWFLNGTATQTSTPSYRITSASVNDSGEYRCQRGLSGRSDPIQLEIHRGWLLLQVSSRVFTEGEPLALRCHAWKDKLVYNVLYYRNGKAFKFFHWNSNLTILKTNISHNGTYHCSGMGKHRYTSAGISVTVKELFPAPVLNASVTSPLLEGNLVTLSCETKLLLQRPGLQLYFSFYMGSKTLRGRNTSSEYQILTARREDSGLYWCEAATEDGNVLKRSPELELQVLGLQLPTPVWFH
T4 sequence (P08637 17-208): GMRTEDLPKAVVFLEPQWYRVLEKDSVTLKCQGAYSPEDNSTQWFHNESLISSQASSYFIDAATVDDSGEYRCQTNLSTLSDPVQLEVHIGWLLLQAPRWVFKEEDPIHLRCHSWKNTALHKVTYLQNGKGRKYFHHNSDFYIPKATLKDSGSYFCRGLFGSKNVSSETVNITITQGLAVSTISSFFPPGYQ

Row | Binder | He/Con_2b (IIb binding) (FcγRIIb) | He/Con_1a (Ia binding) (FcγRIa) | He/Con_3a [1] [control=100] | He/Con_2b [2] [control=100]
1 | GpH7-A5/GpH7-B3 variant I336_04F/GpL16-k0 (antibody, human IgG1, kappa, heterodimerized IgG1, one H chain mutated; also called He Ab) heavy 1: not shown heavy 2: not shown light: DIVMTQSPLSLPVTPGEPASISCQASESLVHSNRNTYLHWYLQKPGQSPQLLIYKVSNRFSGVPDRFSGSGSGTDFTLKISRVEAEDVGVYYCSQNTHVPPTFGQGTKVEIERTVAAPSVFIFPPSDEQLKSGTASVVCLLNNFYPREAKVQWKVDNALQSGNSQESVTEQDSKDSTYSLSSTLTLSKADYEKHKVYACEVTHQGLSSPVTKSFNRGEC | 91.2 relative (control = 100) | 106 relative (control = 100) | – | –
2 | GpH7-A5/GpH7-B3 variant S298_02A/GpL16-k0 (antibody, human IgG1, kappa, He Ab: alteration in one H chain only; also called He Ab) heavy 1: not shown heavy 2: not shown light: DIVMTQSPLSLPVTPGEPASISCQASESLVHSNRNTYLHWYLQKPGQSPQLLIYKVSNRFSGVPDRFSGSGSGTDFTLKISRVEAEDVGVYYCSQNTHVPPTFGQGTKVEIERTVAAPSVFIFPPSDEQLKSGTASVVCLLNNFYPREAKVQWKVDNALQSGNSQESVTEQDSKDSTYSLSSTLTLSKADYEKHKVYACEVTHQGLSSPVTKSFNRGEC | – | – | 160 | 73.4
3 | GpH7-A5/GpH7-B3 variant I336_11K/GpL16-k0 (antibody, human IgG1, kappa, heterodimerized IgG1, one H chain mutated; also called He Ab) heavy 1: not shown heavy 2: not shown light: DIVMTQSPLSLPVTPGEPASISCQASESLVHSNRNTYLHWYLQKPGQSPQLLIYKVSNRFSGVPDRFSGSGSGTDFTLKISRVEAEDVGVYYCSQNTHVPPTFGQGTKVEIERTVAAPSVFIFPPSDEQLKSGTASVVCLLNNFYPREAKVQWKVDNALQSGNSQESVTEQDSKDSTYSLSSTLTLSKADYEKHKVYACEVTHQGLSSPVTKSFNRGEC | 90.3 relative (control = 100) | 105 relative (control = 100) | – | –
4 | GpH7-A5/GpH7-B3 variant I336_12R/GpL16-k0 (antibody, human IgG1, kappa, heterodimerized IgG1, one H chain mutated; also called He Ab) heavy 1: not shown heavy 2: not shown light: DIVMTQSPLSLPVTPGEPASISCQASESLVHSNRNTYLHWYLQKPGQSPQLLIYKVSNRFSGVPDRFSGSGSGTDFTLKISRVEAEDVGVYYCSQNTHVPPTFGQGTKVEIERTVAAPSVFIFPPSDEQLKSGTASVVCLLNNFYPREAKVQWKVDNALQSGNSQESVTEQDSKDSTYSLSSTLTLSKADYEKHKVYACEVTHQGLSSPVTKSFNRGEC | 92.1 relative (control = 100) | 102 relative (control = 100) | – | –
5 | GpH7-A5/GpH7-B3 variant S298_14T/GpL16-k0 (antibody, human IgG1, kappa, He Ab: alteration in one H chain only; also called He Ab) heavy 1: not shown heavy 2: not shown light: DIVMTQSPLSLPVTPGEPASISCQASESLVHSNRNTYLHWYLQKPGQSPQLLIYKVSNRFSGVPDRFSGSGSGTDFTLKISRVEAEDVGVYYCSQNTHVPPTFGQGTKVEIERTVAAPSVFIFPPSDEQLKSGTASVVCLLNNFYPREAKVQWKVDNALQSGNSQESVTEQDSKDSTYSLSSTLTLSKADYEKHKVYACEVTHQGLSSPVTKSFNRGEC | – | – | 113 | 77.9
6 | GpH7-A5/GpH7-B3 variant Q295_14T/GpL16-k0 (antibody, human IgG1, kappa, He Ab: alteration in one H chain only; also called He Ab) heavy 1: not shown heavy 2: not shown light: DIVMTQSPLSLPVTPGEPASISCQASESLVHSNRNTYLHWYLQKPGQSPQLLIYKVSNRFSGVPDRFSGSGSGTDFTLKISRVEAEDVGVYYCSQNTHVPPTFGQGTKVEIERTVAAPSVFIFPPSDEQLKSGTASVVCLLNNFYPREAKVQWKVDNALQSGNSQESVTEQDSKDSTYSLSSTLTLSKADYEKHKVYACEVTHQGLSSPVTKSFNRGEC | – | – | 115 | 66.8

Other lines, results leading:

Row | He/Con_2b (IIb binding) (FcγRIIb) | He/Con_1a (Ia binding) (FcγRIa) | He/Con_3a [1] [control=100] | He/Con_2b [2] [control=100] | Binder
7 | – | – | 103 | 88.4 | GpH7-A5/GpH7-B3 variant S324_14T/GpL16-k0 (antibody, human IgG1, kappa, He Ab: alteration in one H chain only; also called He Ab) heavy 1: not shown heavy 2: not shown light: DIVMTQSPLSLPVTPGEPASISCQASESLVHSNRNTYLHWYLQKPGQSPQLLIYKVSNRFSGVPDRFSGSGSGTDFTLKISRVEAEDVGVYYCSQNTHVPPTFGQGTKVEIERTVAAPSVFIFPPSDEQLKSGTASVVCLLNNFYPREAKVQWKVDNALQSGNSQESVTEQDSKDSTYSLSSTLTLSKADYEKHKVYACEVTHQGLSSPVTKSFNRGEC
8 | – | – | 101 | 88.2 | GpH7-A5/GpH7-B3 variant S324_15Y/GpL16-k0 (antibody, human IgG1, kappa, He Ab: alteration in one H chain only; also called He Ab) heavy 1: not shown heavy 2: not shown light: DIVMTQSPLSLPVTPGEPASISCQASESLVHSNRNTYLHWYLQKPGQSPQLLIYKVSNRFSGVPDRFSGSGSGTDFTLKISRVEAEDVGVYYCSQNTHVPPTFGQGTKVEIERTVAAPSVFIFPPSDEQLKSGTASVVCLLNNFYPREAKVQWKVDNALQSGNSQESVTEQDSKDSTYSLSSTLTLSKADYEKHKVYACEVTHQGLSSPVTKSFNRGEC
9 | – | – | 104 | 83.5 | GpH7-A5/GpH7-B3 variant S324_16H/GpL16-k0 (antibody, human IgG1, kappa, He Ab: alteration in one H chain only; also called He Ab) heavy 1: not shown heavy 2: not shown light: DIVMTQSPLSLPVTPGEPASISCQASESLVHSNRNTYLHWYLQKPGQSPQLLIYKVSNRFSGVPDRFSGSGSGTDFTLKISRVEAEDVGVYYCSQNTHVPPTFGQGTKVEIERTVAAPSVFIFPPSDEQLKSGTASVVCLLNNFYPREAKVQWKVDNALQSGNSQESVTEQDSKDSTYSLSSTLTLSKADYEKHKVYACEVTHQGLSSPVTKSFNRGEC
